Results on 13 molecules are retold here after patent publication US20220033483A1 (GUAGNDONG FEIPENG BIOLOGICAL, published 2022).

The labels stand for the following.
B1: Anti-cTnI 7B9 monoclonal antibody (recombinant, Sample 1) (antibody, mouse IgG1, kappa, V domains shown)
VH: QVQLQQSGTELAKPGASVKFSCKASDYTFSTYWMYWIKQRPGQGLEWIGYLNPSSGHTEYNQRFKDKATLTADKSSSTAYMQLNSLTSEDSAVYYCARKYFGPFAMDYWGQGTSVTVSS
VL: EIFLTQSPAIMSASPGEKVTMTCSASTTVSYAHWYQQKSGTSPKRWLYDSSKIASGIPVRFSGSGSGTSYSLTISSMEAEDAATYYCQNWSTQPYTFGGGTKLEIKR
notes: Recombinant mouse antibody expressed in CHO cells; also called WT; Anti-cTnI 7B9 antibody
B2: Mutation 5 (antibody, V domains shown)
VH: B1 VH with D26W, E59V, A105S
VL: B1 VL with A32S, S50Y, N89E
notes: other CDR sites as WT
B3: Mutation 4 (antibody, V domains shown)
VH: B1 VH with D26N, E59K, A105N
VL: B1 VL with A32E, S50Q, N89V
notes: other CDR sites as WT
B4: Mutation 1 (antibody, V domains shown)
VH: B1 VH with D26G, E59D, A105G
VL: B1 VL with A32V, S50T, N89Q
notes: other CDR sites as WT
B5: Mutation 3 (antibody, V domains shown)
VH: B1 VH with D26I, E59G, A105V
VL: B1 VL with A32I, S50T, N89R
notes: other CDR sites as WT
B6: Mutation 2 (antibody, V domains shown)
VH: B1 VH with D26L, A105I
VL: B1 VL with S50T, N89V
notes: other CDR sites as WT
B7: Mutation 1-6 (antibody, V domains shown)
VH: B1 VH with D26G, S30T, T31S, E59D, K99R, A105G
VL: B1 VL with T27S, A32V, S50T, I53L, N89Q, Q93N
B8: Mutation 1-5 (antibody, V domains shown)
VH: B1 VH with D26G, T31S, S55T, E59D, R63K, F101W, A105G
VL: B1 VL with T27S, T28S, A32V, L47I, S50T, N89Q, Q93N
B9: Mutation 1-56 (antibody, V domains shown)
VH: B1 VH with D26G, S30T, E59D, K99R, F101W, A105G
VL: B1 VL with T28S, A32V, L47I, S50T, N89Q, T92S, Q93N
B10: Mutation 1-7 (antibody, V domains shown)
VH: B1 VH with D26G, S30T, S55T, E59D, R63K, K99R, F101Y, A105G
VL: B1 VL with T28S, A32V, S50T, I53L, N89Q, Q93N
B11: Mutation 1-11 (antibody, V domains shown)
VH: B1 VH with D26G, S30T, T31S, L51I, E59D, R63K, F101W, A105G
VL: B1 VL with T28S, A32V, L47I, S50T, I53L, N89Q
B12: Mutation 1-2 (antibody, V domains shown)
VH: B1 VH with D26G, S30T, T31S, L51I, E59D, K99R, F101W, A105G
VL: B1 VL with T27S, A32V, S50T, I53L, N89Q, T92S
B13: Mutation 1-3 (antibody, V domains shown)
VH: B1 VH with D26G, S30T, L51I, S55T, E59D, R63K, A105G
VL: B1 VL with T28S, A32V, L47I, S50T, I53L, N89Q, T92S, Q93N

Substitutions are numbered along the chain they refer to.

The target of the first test is T1, cTnI quality control product recombinant protein (human, UniProt P19429 1-210, limits assumed).
T1 construct: the assay paragraphs only say cTnI; also called cardiac troponin I; cTnI antigen
T1 sequence (P19429 whole entry): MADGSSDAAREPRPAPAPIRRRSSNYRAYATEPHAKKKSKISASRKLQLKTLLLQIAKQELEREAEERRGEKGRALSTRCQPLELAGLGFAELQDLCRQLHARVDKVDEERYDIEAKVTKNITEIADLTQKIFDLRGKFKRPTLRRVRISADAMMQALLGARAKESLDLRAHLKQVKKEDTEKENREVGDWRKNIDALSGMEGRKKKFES
The experiment in a line: AMC biosensor, antibody on sensor. Here is the method: (§1) Operating process: it is equilibrated in Buffer 1 (PBST) for 60 s, the antibody is immobilized in an antibody solution for 300 s, incubated in Buffer 2 (PBST) for 180 s, bound in antigen solution for 420 s, dissociated in the Buffer 2 for 1200 s, 10 mM of GLY solution with pH 1.69 and Buffer 3 are used for sensor regeneration, and data is output.
As for B1, the Kd turned out to be 12.9 nM, the koff turned out to be 0.000368 s⁻¹ and the kon is 28600 M⁻¹ s⁻¹.

As to B2, the Kd was 978000 nM, the koff was 0.687 s⁻¹ and the kon was 702 M⁻¹ s⁻¹.

On to B3, for which the Kd worked out at 56700 nM, the koff was 0.0371 s⁻¹ and the kon was determined as 654 M⁻¹ s⁻¹.

Consider B4, for which the Kd was 9.96 nM, the koff was determined as 0.000263 s⁻¹ and the kon was found to be 26400 M⁻¹ s⁻¹.

In the case of B5, the Kd was determined as 17.8 nM, the koff came out at 0.000481 s⁻¹ and the kon was determined as 27000 M⁻¹ s⁻¹.

Take B6: the Kd is 15.6 nM, the koff was found to be 0.000434 s⁻¹ and the kon is 27800 M⁻¹ s⁻¹.

The target of another test is T1, cTnI quality control product …. The experiment in a line: capture ELISA, antibody 333.333 ng/ml, cTnI 0.15 ug/ml. Here is the method:
(§2) After mutation, the antibody activity is detected, 1 μg/ml of goat anti-mouse IgG is diluted with coating solution to coat a microwell plate, 100 μL per well, and overnight at 4 DEG C.; on the next day, it is washed twice with washing solution, and patted dry; blocking solution (20% BSA+80% PBS) is added, 120 μL per well, 37 DEG C., and 1 h, and patted dry; a diluted cTnI monoclonal antibody is added, 100 μL/well, 37 DEG C., and 60 min; liquid in the plate is shaken off, patted dry, and […] of mouse negative blood is added for blocking, 120 μl per well, 37 DEG C., 1 h; liquid in the plate is shaken off, patted dry, a diluted cTnI antigen (0.15 μg/ml) is added, 100 μL per well, 37 DEG C., and 40 min; it is washed for 5 times with the washing solution, and patted dry; another strain of the cTnI monoclonal antibody (1:5K) labeled with HRP is added, 100 μL per well, 37 DEG C., and 30 min; color developing solution A (50 μL/well) is added, color developing solution B (50 μL/well) is added, 10 min; stop solution is added, 50 μL/well; and a OD value is read at 450 nm (refer to 630 nm) on a microplate reader.
(ELISA stands for enzyme-linked immunosorbent assay.)
For B1, the “OD 450 nm” value came to 2.01 OD.

As to B2, the “OD 450 nm” value was 0.514 OD.

In the case of B3, the “OD 450 nm” value amounted to 0.678 OD.

Turning to B4, the “OD 450 nm” value stood at 2.4 OD.

Regarding B5, the “OD 450 nm” value is 2.11 OD.

B6: the “OD 450 nm” value is 2.3 OD.

The target is the same in a further test. The experiment in a line: capture ELISA, antibody 1000.000 ng/ml, cTnI 0.15 ug/ml. Here is the method:
as §2
Turning to B1, the “OD 450 nm” value was determined as 2.1 OD.

In the case of B2, the “OD 450 nm” value was found to be 1.12 OD.

Consider B3, for which the “OD 450 nm” value amounted to 1.28 OD.

On to B4, for which the “OD 450 nm” value came to 2.34 OD.

In the case of B5, the “OD 450 nm” value was 2.21 OD.

Regarding B6, the “OD 450 nm” value is 2.33 OD.

The next test shares this target. The experiment in a line: capture ELISA, antibody 1.372 ng/ml, cTnI 0.15 ug/ml. Here is the method: as §2
As to B1, the “OD 450 nm” value is 0.174 OD.

With B4, the “OD 450 nm” value came to 1.03 OD.

B5: the “OD 450 nm” value worked out at 0.367 OD.

As to B6, the “OD 450 nm” value amounted to 0.528 OD.

Another test shares this target. The experiment in a line: AMC biosensor, antibody on sensor. This is another data set of the same source. Here is the method:
as §1
Regarding B1, the Kd is 12.9 nM, the koff turned out to be 0.000368 s⁻¹ and the kon is 28600 M⁻¹ s⁻¹.

Turning to B7, the Kd was 2.32 nM, the koff is 6.03e-05 s⁻¹ and the kon is 26000 M⁻¹ s⁻¹.

On to B8, for which the Kd is 0.238 nM, the koff amounted to 1.17e-05 s⁻¹ and the kon was 49300 M⁻¹ s⁻¹.

In the case of B9, the Kd was found to be 6.07 nM, the koff is 8.86e-05 s⁻¹ and the kon is 14600 M⁻¹ s⁻¹.

B10: the Kd worked out at 2.92 nM, the koff turned out to be 4.05e-05 s⁻¹ and the kon was found to be 13900 M⁻¹ s⁻¹.

B11: the Kd was found to be 0.221 nM, the koff came to 4.49e-06 s⁻¹ and the kon was 20300 M⁻¹ s⁻¹.

Regarding B12, the Kd worked out at 7.96 nM, the koff turned out to be 0.000302 s⁻¹ and the kon stood at 37900 M⁻¹ s⁻¹.

As for B13, the Kd turned out to be 9.45 nM, the koff worked out at 0.000181 s⁻¹ and the kon was 19200 M⁻¹ s⁻¹.

Regarding B4, the Kd came to 9.96 nM, the koff was 0.000263 s⁻¹ and the kon was found to be 26400 M⁻¹ s⁻¹.

A further test has the same target. Kind of test: capture ELISA, antibody 111.111 ng/ml, cTnI 0.15 ug/ml. Here is the method: as §2
With B1, the “OD 450 nm” value stood at 1.88 OD.

As to B2, the “OD 450 nm” value was determined as 0.247 OD.

For B3, the “OD 450 nm” value was 0.374 OD.

Turning to B4, the “OD 450 nm” value stood at 2.4 OD.

As to B5, the “OD 450 nm” value came out at 2 OD.

Regarding B6, the “OD 450 nm” value is 2.17 OD.

A further test shares this target. Kind of test: capture ELISA, antibody 37.037 ng/ml, cTnI 0.15 ug/ml. Here is the method: as §2
As to B1, the “OD 450 nm” value came to 1.7 OD.

For B4, the “OD 450 nm” value came out at 2.36 OD.

B5: the “OD 450 nm” value was found to be 2 OD.

In the case of B6, the “OD 450 nm” value came out at 2.13 OD.

For another test the target is unchanged. The experiment in a line: capture ELISA, antibody 12.346 ng/ml, cTnI 0.15 ug/ml. Here is the method: as §2
For B1, the “OD 450 nm” value amounted to 0.947 OD.

On to B4, for which the “OD 450 nm” value stood at 2.34 OD.

As for B5, the “OD 450 nm” value turned out to be 1.41 OD.

Take B6: the “OD 450 nm” value stood at 1.61 OD.

For the next test the target is unchanged. The experiment in a line: capture ELISA, antibody 4.115 ng/ml, cTnI 0.15 ug/ml. Here is the method: as §2
For the molecule B1, the “OD 450 nm” value was determined as 0.475 OD.

B4: the “OD 450 nm” value turned out to be 1.97 OD.

B5: the “OD 450 nm” value was determined as 0.978 OD.

With B6, the “OD 450 nm” value was found to be 1.15 OD.

The target is the same in another test. Kind of test: capture ELISA, antibody 0.000 ng/ml (blank), cTnI 0.15 ug/ml. Here is the method: as §2
In the case of B1, the “OD 450 nm” value was 0.144 OD.

On to B4, for which the “OD 450 nm” value was found to be 0.193 OD.

As for B5, the “OD 450 nm” value is 0.204 OD.

Regarding B6, the “OD 450 nm” value came out at 0.224 OD.

By Kd is commonly meant a measure of binding affinity in units of concentration. A word on the koff: it is the rate constant with which the complex falls apart. Broadly, the kon is the rate constant with which the complex forms.
